According to paper PMC9369017:

Molecular target: SARS-CoV-2 spike protein on Ramos-S cells (SARS-CoV-2) (UniProt P0DTC2)
Test: flow cytometry on cells

Substance	median fluorescence intensity
flACE2-Fc-E430G (from UniProt Q9BYF1 19-740) (Fc fusion)	17300
trACE2-Fc-H429Y (from UniProt Q9BYF1 19-615) (Fc fusion)	11600
trACE2-Fc-E430G (from UniProt Q9BYF1 19-615) (Fc fusion)	16700
EflACE2-Fc-H429F (from UniProt Q9BYF1 19-740) (Fc fusion)	20500
flACE2-Fc-H429Y (from UniProt Q9BYF1 19-740) (Fc fusion)	12500
EflACE2-Fc-E430G (from UniProt Q9BYF1 19-740) (Fc fusion)	21000
trACE2-Fc-H429F (from UniProt Q9BYF1 19-615) (Fc fusion)	16300
EflACE2-Fc-H429Y (from UniProt Q9BYF1 19-740) (Fc fusion)	15100
flACE2-Fc-H429F (from UniProt Q9BYF1 19-740) (Fc fusion)	16900
